Among the data in PMC10593859 (2023) are Kd values, retold here.

For orientation: Kd means the concentration at which binding is half-saturated. The low end stands for a tighter complex, the high end for a looser complex.

The target of experiment [1] is Ad26 viral particles. The experiment is described as follows: SPR; post-Ad26 vaccination human serum (1:5) flowed over Ad26 first.
Experiment [2] addresses Ad26 viral particles. As to the kind of experiment: SPR; pre-vaccination human serum (1:5) flowed over Ad26 first. On the technique in general: SPR reads the build-up and loss of mass on a sensor chip optically.
The target in experiment [3] is Ad26 viral particles. The experiment is described as follows: SPR; post-Ad26 vaccination human serum (1:5) flowed over Ad26 first. This is another data set of the same source.
The target in experiment [4] is Ad26 viral particles. The experiment is described as follows: SPR; pre-vaccination human serum (1:5) flowed over Ad26 first. This is another data set of the same source.

B1: recombinant human platelet factor 4 (PF4) (natural protein)
chain: EAEEDGDLQCLCVKTTSQVRPRHITSLEVIKAGPHCPTAQLIATLKNGRKICLDLQAPLYKKIIKKLLES
Regarding B1, the equilibrium dissociation constant (Kd) in the experiment with Ad26 viral particles [1] was 612 nM; in the experiment with Ad26 viral particles [2], 122 nM; in the experiment with Ad26 viral particles [3], 478 nM; with Ad26 viral particles [4], 233 nM.
